Test results as given in the RNAGym collection of RNA variant scans (doi:10.7554/elife.90254).

B1: OR4K15 (parent)
chain: GUUAACGGUCAUAGGCCAUGGAAACUAGGAGCACCAUUUCGCUGCCAGUGAAGAAAUGAACAAAGAAAAUCUGGGCCAGGCAGGCAUCAAAAGAAAUAGUCUUGCGCUCAACCAGAAAGUCUGUAAUCAUUUUAAGGGUA

Variants of: B1
Assay: self-cleavage, relative activity (ratio to wild type); higher = more cleavage; in vitro, sequencing; the parent is a self-cleaving ribozyme
With GUUAACGGUCAUAGGCCAUGGAAACUAGGAGCACCAUUUCGCUGCUAGUGAAGAAAUGAACAAAGAAAAUCUGGGCCAGGCAGGCAUCAAAAGAAAUAGUCUUGCGCUCAACCAGAAAGCCUGUAAUCAUUUUAAGGGUA the self-cleavage was 0.15.
Work on GUUAACGGUCAUAGGCCAUGGAAACUAGGAGCACCACUUCGCUGCCAGUGAAGAAAUGAACAAAGAAGAUCUGGGCCAGGCAGGCAUCAAAAGAAAUAGUCUUGCGCUCAACCAGAAAGUCUGUAAUCAUUUUAAGGGUA yielded a self-cleavage of 1.25.
GUUAACGGUCAUAGGCCAUGGAAACUAGGAGCACCAUUUCGCUGCCAGUGAAGAAAUGAACAAAGAGAAUCUGGGCCAGGCAGGCAUCAAAAGAAAUAGUCUUGCGCUCAACCAGAAAGUCUGUAAUCUUUUUAAGGGUA gave a self-cleavage of 1.03.
Work on GUUAAUGGUCAUAGGCCAUGGAAACUAGGAGCACCAUUUCGCUGCCAGUGAAGAAAUGAACAAAGAAAAUCUGGGCCAGGCAGGCAUCAAAAGAAAUAGUCUUGCGCUCAACCUGAAAGUCUGUAAUCAUUUUAAGGGUA yielded a self-cleavage of 0.07.
For GUUAACGGUCAUAGGCCAUGGAAACUAGGAGCACCUUUUCGCUGCCAGUGAAGAAAUGAACAAAGAGAAUCUGGGCCAGGCAGGCAUCAAAAGAAAUAGUCUUGCGCUCAACCAGAAAGUCUGUAAUCAUUUUAAGGGUA, the self-cleavage was 1.86.
For GUUAACGGUCAUAGGCCAUGGAACCUAGGAGCACCAUUUCGCUGCCAGUGAAGAAAUGAACAAAGAAAAUCUGGGCCAGGCAGGCAUCAAAAGAAAUAGUCUUGCGCUCAACCAGAAAGUCUGUAACCAUUUUAAGGGUA, the self-cleavage was 1.03.
In the case of GCUAACGGUCAUAGGCCAUGGAAACUAGGAGCACCAUUUCGCUGCCAGUGAAGAAAUGAACAAAGAAAAUCUGGGCCAGGCAGGCAUCAAAGGAAAUAGUCUUGCGCUCAACCAGAAAGUCUGUAAUCAUUUUAAGGGUA, the self-cleavage is reported as 0.98.
Work on GUUAACGGUCAUAGGCCAUGGAAACUAGGAGCACCAUUUCGCUGCCAGUGAAGAAAUGAACAAAGAAAAUCUGGGCCAGGCAGGCAUCAAAAGGAAUAGUCUUGCGCUCAACCAGAAAGUCUGUAAUCAUUUUUAGGGUA yielded a self-cleavage of 1.58.
GUUAACGGUCAUAGGCCAUGGAGACUAGGAGCACCAUUUCGCUGCCAGUGAAGAUAUGAACAAAGAAAAUCUGGGCCAGGCAGGCAUCAAAAGAAAUAGUCUUGCGCUCAACCAGAAAGUCUGUAAUCAUUUUAAGGGUA gave a self-cleavage of 0.86.
With GUUAACGGUCAUAGGCCAUGGAAACUAGGAGCACCGUUUCGCUGCCAGUGAAGAAAUGAACAAAGAAAAUCUGGGCCAGGCAGGCAUCAAAAGAAAUAGUCUUGCGCUCAACCAGAAAGCCUGUAAUCAUUUUAAGGGUA the self-cleavage was 1.28.
GUUAACGGACAUAGGCCAUGGAAACUAGGAGCACCAUUUCGCUGCCAGUGAAGAAAUGAACAAAGAAAAUCUGGGCCAGGCGGGCAUCAAAAGAAAUAGUCUUGCGCUCAACCAGAAAGUCUGUAAUCAUUUUAAGGGUA showed a self-cleavage of 1.13.
Variant GUUAACGGUCAUAGGCCAUGGAAACUAGGAGCACCAUUUCGCUGCCAGUGAAGAAAUGAACAAAGAAAAUCUGGGCCCGGCAGGCUUCAAAAGAAAUAGUCUUGCGCUCAACCAGAAAGUCUGUAAUCAUUUUAAGGGUA has a self-cleavage of 0.19.
GUUAACGGUCAUAGGCCAUGGAAACUAGGAGCACCAUUUCGCUGCCAGUGAAGAAAUGAACAAAGAAAACCUGGGCCAGGCAGGCAUCAAAAGAAAUGGUCUUGCGCUCAACCAGAAAGUCUGUAAUCAUUUUAAGGGUA gave a self-cleavage of 0.41.
With GUUAACGGUCAUAGGCCAUGGAUACUAGGAGCACCAUUUCGCUGCCAGUGAAGAAAUGAACAAAGAAAAUCUGGGCCAGGCAGGCAUCGAAAGAAAUAGUCUUGCGCUCAACCAGAAAGUCUGUAAUCAUUUUAAGGGUA the self-cleavage was 0.86.
In the case of GUUAACGGUCAUAGGCCAUGGAAACUAGGAGCACCAUUUCGCUGCCAGAGAAGAAAUGAACAAAGAAAAUCUGGGCCAGGCAGGCAUCAAGAGAAAUAGUCUUGCGCUCAACCAGAAAGUCUGUAAUCAUUUUAAGGGUA, the self-cleavage is reported as 1.
For GUUAACGGUCAUAGGCCAUGGAAACUAGGAGCACCAUUUCGCUGCCAGUGAAGAAAUGAACGAAGAAAAUCUGGGCCAGGCAGGCAUCAAAAGAAAUAGUCUUGCGCUCAACCAGAAAGUCUGUAAUCAUUUUAAUGGUA, the self-cleavage was 1.1.
For GUUAACGGUCAUAGGCCAUGGAAACUAGGAGCACCAUUUCGCUGCCAGUGAAGAAAUAAACAAAGAAAAUCUGGGCCAGGCAGGCAUCAAAAGAAAUAGUCUUGCGCUCAACCAGAAAGUCUGUAGUCAUUUUAAGGGUA, the self-cleavage was 0.63.
In the case of GUUAACGGUCAUAGCCCAUGGAAACUAGGAGCACCAUUUCGCUGCCAGUGAAGAAAUGAACAAAGAAAAUCUGGGCCAGGCAGGCAUCAAAAGAAAUAGUCUUGCGCUCAGCCAGAAAGUCUGUAAUCAUUUUAAGGGUA, the self-cleavage is reported as 0.01.
GUUAACGGUCAUAGGCCAUGGAAACUAGGAGCACCAUUUCGCUGCCAGUGAAGAAAUGAACAAAGAAAAUCUGGGCCAGGCAGGCAUCAAAAGGAAUAGUCUUGCGCUCAACCAGAAAGUCUGUAAUCAAUUUAAGGGUA gave a self-cleavage of 1.41.
GUUAACGGUCAUGGGCCAUGGAAACUAGGAGCACCAUUUCGCUGCCAGUGAAGAAAUGAACAAAGAAAAUCUGGGCCAGGCAGGCAUCAACAGAAAUAGUCUUGCGCUCAACCAGAAAGUCUGUAAUCAUUUUAAGGGUA gave a self-cleavage of 1.81.
With GUUAACGGUCAUAGGCCAUGGAAACUAGGAGCACCAUUUCGCUGCCAGUGGAGAAAUGAACAAAGAAAAUCUGGGCCAGGCAGGCAUCAAAAGAAAUAGUCUUGCGCUCAACCAGAAAGUCUGUAAUCAUUUUCAGGGUA the self-cleavage was 1.4.
Variant GUUAACGAUCAUAGGCCUUGGAAACUAGGAGCACCAUUUCGCUGCCAGUGAAGAAAUGAACAAAGAAAAUCUGGGCCAGGCAGGCAUCAAAAGAAAUAGUCUUGCGCUCAACCAGAAAGUCUGUAAUCAUUUUAAGGGUA has a self-cleavage of 0.97.
With GUUAACGGUCAUAGGCCAUGGAAACUAGGAGCACCAUUUCGCUGCCAGUGAAGAAUUGAACAAAGAAAAUCUGGGCCAGGCAGGCAUCAAGAGAAAUAGUCUUGCGCUCAACCAGAAAGUCUGUAAUCAUUUUAAGGGUA the self-cleavage was 2.02.
With GUUAACGGUCAUAGGCCAUGGAAACUAGGAGCACCAUUUCGCUGCCAGUGAAAAAAUGAACAAAGAAAAUCUGGGCCAGGCAGGCAUCAAAAGAAAUAGUCUUGCGCUCAACCAGAAAGUCUGUAAUCAUUUUAAGGGUA the self-cleavage was 1.21.
GUUAACGGUCAUAGGCCAUGGAAACUAGGAGCACCAUUUCGCUGCCAGUGAAGAAAUGAACAUAGAAAAUCUGGGCCAGGCAGGCGUCAAAAGAAAUAGUCUUGCGCUCAACCAGAAAGUCUGUAAUCAUUUUAAGGGUA gave a self-cleavage of 2.75.
Work on GUUAACGGUCAUAGGCCAUGGAAACUAGGAGCACCACUUCGCAGCCAGUGAAGAAAUGAACAAAGAAAAUCUGGGCCAGGCAGGCAUCAAAAGAAAUAGUCUUGCGCUCAACCAGAAAGUCUGUAAUCAUUUUAAGGGUA yielded a self-cleavage of 1.55.
For GUUAACGGUCAUAGGCCAUGGAGACUAGGAGCACCAUUUCGCUGCCAGUGAAGAAAUGAACAGAGAAAAUCUGGGCCAGGCAGGCAUCAAAAGAAAUAGUCUUGCGCUCAACCAGAAAGUCUGUAAUCAUUUUAAGGGUA, the self-cleavage was 1.01.
With GUUAACGGUCAUAGGCCAUGGAAACUAGGAGCACCAUUUCGCUGCCAGUGAAGAAAUGAACAAAGAAAAUCUGGGCCAGGCAGGCAUCAAAAGAAAUAGUCUUGCGCUCAACCAGAAAGUCUGUAAUCACUUUAAGGGUA the self-cleavage was 0.76.
GUUAACGGUCAUAGGCCAUGGAAACCAGGAGCACCAUUUCGCUGCCAGUGAAGAAAUGAACAAAGAAAAUCAGGGCCAGGCAGGCAUCAAAAGAAAUAGUCUUGCGCUCAACCAGAAAGUCUGUAAUCAUUUUAAGGGUA showed a self-cleavage of 0.33.
For GUUAACGGCCAUAGGCCAUGGAAACUAGGAGCACCAUUUCGCUGCCAGUGAAGAAAUGAACAAAGAAAAUCUGGGCCAGGCAGGCAUCAAAAGAAAUAGUCUUGCGCUCAACCAGAAUGUCUGUAAUCAUUUUAAGGGUA, the self-cleavage was 0.88.
Variant GUUAACGGUCAUAGGCCAUGGAAACUAGGAGCACCAUUUCGCUGCUAGUGAAGAAAUGAACAAAGAAAAUCAGGGCCAGGCAGGCAUCAAAAGAAAUAGUCUUGCGCUCAACCAGAAAGUCUGUAAUCAUUUUAAGGGUA has a self-cleavage of 0.14.
For GUUAACGGUCAUAGGCCAUGGAAACUAGGAGCACCAUUUCGCUGCCAGUGAAGAAAUGAGCAAAGAAAAUCUGGGCCAGGCAGGCAUCAAAAGAAAUAGUCUUGCGCUCAACCAGAAAGUCUGUAAACAUUUUAAGGGUA, the self-cleavage was 1.87.
With GUUAACGGUCGUAGGCCAUGGAAACUAGGAGCACCAUUUCGCUGCCAGUGAAGAAAUGAACAAAGAAAAUCUGGGCCAGGUAGGCAUCAAAAGAAAUAGUCUUGCGCUCAACCAGAAAGUCUGUAAUCAUUUUAAGGGUA the self-cleavage was 0.75.
GUUAACGGUCAUAGGCCAUGGAAACUAGGAGCACCAUUUCGUUGCCAGUGAAGAAAUGAACAAAGAAAAUCUGGGCCAGGCAGGCAUCAAAAGAAGUAGUCUUGCGCUCAACCAGAAAGUCUGUAAUCAUUUUAAGGGUA gave a self-cleavage of 2.35.
GUUAACGGUCAUAGGCCAUGGAAACUAGGAGCACCAUUUCGCUGCCAGUGAAGUAAUGAACAAAGAAAAUCUGGGCCAGGCAGGCAUCAAAAGAAAUAGUCUUGCGCUCAACCGGAAAGUCUGUAAUCAUUUUAAGGGUA gave a self-cleavage of 0.14.
With GUUAACGGUCAUAGGCCGUGGAAACUAGGAGCACCAUGUCGCUGCCAGUGAAGAAAUGAACAAAGAAAAUCUGGGCCAGGCAGGCAUCAAAAGAAAUAGUCUUGCGCUCAACCAGAAAGUCUGUAAUCAUUUUAAGGGUA the self-cleavage was 1.56.
Variant GUUAACGAUCAUAGGCCAUGGAAACUAGGAGCUCCAUUUCGCUGCCAGUGAAGAAAUGAACAAAGAAAAUCUGGGCCAGGCAGGCAUCAAAAGAAAUAGUCUUGCGCUCAACCAGAAAGUCUGUAAUCAUUUUAAGGGUA has a self-cleavage of 2.08.
GUUAACGGCCAUAGGCCAUGGAAACUAGGAGCACCAUUUCGCUGCCAGUGAAGAAGUGAACAAAGAAAAUCUGGGCCAGGCAGGCAUCAAAAGAAAUAGUCUUGCGCUCAACCAGAAAGUCUGUAAUCAUUUUAAGGGUA showed a self-cleavage of 1.24.
For GUUAACGGUCUUAGGCCAUGGAAACUAGGAGCACCAUUUCGCUGCCAGUGAAGAAAUGAACAAAGAAAAUCUGGGCCAGGCAGGCAUCAAAAGAAAUAGUCUUGCGCUCAACCAGAAAGCCUGUAAUCAUUUUAAGGGUA, the self-cleavage was 0.69.
Work on GUUAACGGUCAUAGGCCAUGGAAACUAGGAGCACCAUCUCGCUGCCAGUGAAGAAAUGAACAAAGAAAAUCUGGGCCAGGCAGGCAUCAAAAGAAAUAGUCUUGCGCUCAACCAGAAAGUCUGUAAUCAUUUUAUGGGUA yielded a self-cleavage of 1.86.
For GUUAACGGUCAUAGGCCAUGGAAACUAGGAGCACCAUUUCGCUGCCAGUGAAGAAAUGAACAAAGAAAAUCUGGGCCAGGCAGGCAUCAAAAGAAAUAGUCUUGCGCUCAACCGUAAAGUCUGUAAUCAUUUUAAGGGUA, the self-cleavage was 0.02.
